B1: AMX86-D6 (ssRNA)
RNA: GGGAAAAGCGAAUCAUACACAAGAUUAGGCGUCGUGACAAUAACUGGUCCACGAGCAUGUCAGUGCUCCGCCAGAGACCAACCGAGAA
modifications: 2'-F C and U, 2'-OH A and G
B2: AMX91-A6 (ssRNA)
RNA: GGGAAAAGCGAAUCAUACACAAGAUUGGCAAUGUGACCUUCAACCCUUUUCCCGAUGAACAGUGGCUCCGCCAGAGACCAACCGAGAA
modifications: 2'-F C and U, 2'-OH A and G
B3: AMX91-G11 (ssRNA)
RNA: GGGAAAAGCGAAUCAUACACAAGACUUAACAGUGCGGGGCGCAGUGUAUAGAUCCGCAAUGUGUGCUCCGCCAGAGACCAACCGAGAA
modifications: 2'-F C and U, 2'-OH A and G
B4: AMX91-C12 (ssRNA)
RNA: GGGAAAAGCGAAUCAUACACAAGACGAUAGUAUGACCUUUUGAAAGGCUUCCCGAGCGGUGUUCGCUCCGCCAGAGACCAACCGAGAA
modifications: 2'-F C,U
B5: AMX91-D9 (ssRNA)
RNA: GGGAAAAGCGAAUCAUACACAAGAGUGUAUUACCCCCAACCCAGGGGGACCAUUCGCGUAACAAGCUCCGCCAGAGACCAACCGAGAA
modifications: 2'-F C,U
B6: AMX91-H8 (ssRNA)
RNA: GGGAAAAGCGAAUCAUACACAAGAACGCAUAGUCGGAUUUACCGAUCAUUCUGUGCCUUCGUGACGCUCCGCCAGAGACCAACCGAGAA
modifications: 2'-F C and U, 2'-OH A and G
B7: AMX86-C5 (ssRNA)
RNA: GGGAAAAGCGAAUCAUACACAAGAGUUUUAUGUGGGUCCCGAUGAUUAACUUUAUUGGCGCAUUGCUCCGCCAGAGACCAACCGAGAA
modifications: 2'-F C and U, 2'-OH A and G
B8: AMX91-G9 (ssRNA)
RNA: GGGAAAAGCGAAUCAUACACAAGAAUUGUGCUUACAACUUUCGUUGUACCGACGUGUCAGUUAUGCUCCGCCAGAGACCAACCGAGAA
modifications: 2'-F C,U
B9: AMX91-B8 (ssRNA)
RNA: GGGAAAAGCGAAUCAUACACAAGAAUCCUGGCUUCGCAUAGUGUAUGGGUAGUACGACAGCGCGUGCUCCGCCAGAGACCAACCGAGAA
modifications: 2'-F C and U, 2'-OH A and G
B10: AMX91-F11 (ssRNA)
RNA: GGGAAAAGCGAAUCAUACACAAGACGCGUCAGGUCCACGCUGAAAUUUAUUUUCGGCAGUGUAAGCUCCGCCAGAGACCAACCGAGAA
modifications: 2'-F C and U, 2'-OH A and G
B11: AMX91-G1 (ssRNA)
RNA: GGGAAAAGCGAAUCAUACACAAGAUAUGUGCCUGGGAUGGACGACAUCCCCUGUCUAAGGAUAUGCUCCGCCAGAGACCAACCGAGAA
modifications: 2'-F C and U, 2'-OH A and G
B12: AMX86-D5 (ssRNA)
RNA: GGGAAAAGCGAAUCAUACACAAGAGAGGUAUGUGGUUUUGCGGAGCAACUCGUGUCAGCGGUCAGCUCCGCCAGAGACCAACCGAGAA
modifications: 2'-F C and U, 2'-OH A and G
B13: AMX84-A11 (ssRNA)
RNA: B12 RNA
modifications: 2'-F C and U, 2'-OH A and G
B14: AMX91-E3 (ssRNA)
RNA: GGGAAAAGCGAAUCAUACACAAGAUUACUCCGUUAGUGUCAGUUGACGGAGGGAGCGUACUAUUGCUCCGCCAGAGACCAACCGAGAA
modifications: 2'-F C and U, 2'-OH A and G
B15: AMX91-H7 (ssRNA)
RNA: GGGAAAAGCGAAUCAUACACAAGACUUAUCGCCUCAAGGGGGGUAAUAAACCCAGCGUGUGCAUGCUCCGCCAGAGACCAACCGAGAA
modifications: 2'-F C,U

Tests used:
[1] = target: T1, IL-23 (human, p19/p40 heterodimer) (Homo sapiens, UniProt Q9NPF7;P29460 SEQ:20-189,SEQ:23-328); test: cell_activity; TransAM STAT3, PHA blasts; details: tags: R&D Systems
Procedure: (§1) In summary, the cell-based assay was conducted by isolating the peripheral blood mononuclear cells (PBMCs) from whole blood using a Histopaque gradient (Sigma, St. Louis, Mo.). The PBMCs were cultured for 3 to 5 days at 37° C./5% CO₂ in Peripheral Blood Medium (Sigma) which contains PHA, supplemented with IL-2 (100 units/mL) (R&D Systems, Minneapolis, Minn.), to generate PHA Blasts. To test IL-23 aptamers, the PHA Blasts were washed twice with 1×PBS, then serum starved for four hours in RPMI, 0.20% FBS. After serum starvation, approximately 2 million cells were aliquotted into appropriately labeled eppendorf tubes. hIL-23 at a final constant concentration of 3 ng/mL (R&D Systems, Minneapolis, Minn.) was combined with a dilution series of various IL-23 aptamers as described in Example 1, and the cytokine/aptamer mixture was added to the aliquotted cells in a final volume of 100 μl and incubated at 37° C. for 10-12 minutes. The incubation reaction was stopped by adding 1 mL of ice-cold PBS with 1.5 mM Na₃VO₄. Cell lysates were made using the lysis buffer provided by the TransAM™ STAT 3 assay following the manufacturer's instructions. FIG. 20 depicts a flow summary of the protocol used for the cell based assay.
(§2) Full length clones from the rRfY selection described in Example 1A, and select minimized rRfY clones that were described in Example 2A. 1, were tested using the TransAM™ STAT3 activation assay. Table 34 summarizes the cell based assay data for IL-23 full length aptamers generated from the rRfY selections described in Example 1A. 1, each compared to the activity of their respective parent (full length) clone.

[2] = target: IL-12 (human, p35/p40 heterodimer) (Homo sapiens, UniProt P29459;P29460 SEQ:57-253,SEQ:23-328); test: filter; no significant binding
[3] = target: T1, IL-23 (human, p19/p40 heterodimer); test: cell_activity; TransAM STAT3; details: tags: R&D Systems, carrier free
Procedure: as §1, §2

[4] = target: T1, IL-23 (human, p19/p40 heterodimer); test: filter; SHMCK, tRNA; details: tags: R&D Systems, carrier free
Procedure: Monitoring Progress of rRfY Selection. Dot blot binding assays were performed throughout the selections to monitor the protein binding affinity of the pools. Trace ³²P-labeled RNA was combined with a dilution series of h-IL-23 and incubated at room temperature for 30 minutes in 1×SHMCK (20 mM Hepes, 120 mM NaCl, 5 mM KCl, 1 mM MgCl₂, 1 mM CaCl₂, pH 7.4) plus 0.1 mg/mL tRNA for a final volume of 20 μL. The binding reactions were analyzed by nitrocellulose filtration using a Minifold I dot-blot, 96-well vacuum filtration manifold (Schleicher & Schuell, Keene, N.H.). A three-layer filtration medium was used, consisting (from top to bottom) of Protran nitrocellulose (Schleicher & Schuell), Hybond-P nylon (Amersham Biosciences) and GB002 gel blot paper (Schleicher & Schuell). RNA that is bound to protein is captured on the nitrocellulose filter, whereas the non-protein bound RNA is captured on the nylon filter. The gel blot paper was included simply as a supporting medium for the other filters. Following filtration, the filter layers were separated, dried and exposed on a phosphor screen (Amersham Biosciences, Piscataway, N.J.) and quantified using a Storm 860 Phosphorimager® blot imaging system (Amersham Biosciences).
When a significant positive ratio of binding of RNA in the presence of h-IL-23 versus in the absence of h-IL-23 was seen, the pools were cloned using a TOPO TA cloning kit (Invitrogen, Carlsbad, Calif.) according to the manufacturer's instructions. For the h-IL-23 and X-IL-23 selections, the Round 8 pool templates were cloned, and 32 individual clones from each selections were assayed in a 1-point dot blot screen (+/−75 nM h-IL-23, as well as a separate screen at +/−75 nM h-IL-12). For the PN-IL-23 selection, the Round 10 pool was cloned and sequenced, and 8 unique clones were assayed for protein binding in a 1-point dot blot screen (+/−200 nM h-IL-23 and a separate screen at +/−200 nM h-IL-12). Subsequently, the Round 10 PN-IL-23 pool was re-cloned for further sequences, as well as the R12 PN-IL-23 pool, and the clones were assayed for protein binding in a 1 point do blot screen (+/−100 nM h-IL-23 or +/−200 nM h-IL-12).

Sequence of IL-12 (human, p35/p40 heterodimer) (P29459 23-219, chain 1 of 2): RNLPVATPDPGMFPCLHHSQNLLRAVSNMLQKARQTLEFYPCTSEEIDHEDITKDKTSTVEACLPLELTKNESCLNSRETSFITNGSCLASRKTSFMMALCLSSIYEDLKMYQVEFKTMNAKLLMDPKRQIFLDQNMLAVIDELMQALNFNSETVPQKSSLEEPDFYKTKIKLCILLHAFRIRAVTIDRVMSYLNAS
Sequence of IL-12 (human, p35/p40 heterodimer) (P29460 23-328, chain 2 of 2): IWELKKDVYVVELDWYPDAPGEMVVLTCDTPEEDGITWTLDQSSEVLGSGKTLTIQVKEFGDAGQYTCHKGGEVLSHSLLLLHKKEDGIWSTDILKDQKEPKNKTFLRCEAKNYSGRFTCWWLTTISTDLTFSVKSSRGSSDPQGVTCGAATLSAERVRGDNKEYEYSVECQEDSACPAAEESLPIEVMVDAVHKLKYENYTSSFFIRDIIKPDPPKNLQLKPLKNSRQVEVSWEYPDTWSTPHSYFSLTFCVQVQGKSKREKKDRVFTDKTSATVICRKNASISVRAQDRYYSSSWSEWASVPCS
T1 sequence (Q9NPF7 20-189, chain 1 of 2): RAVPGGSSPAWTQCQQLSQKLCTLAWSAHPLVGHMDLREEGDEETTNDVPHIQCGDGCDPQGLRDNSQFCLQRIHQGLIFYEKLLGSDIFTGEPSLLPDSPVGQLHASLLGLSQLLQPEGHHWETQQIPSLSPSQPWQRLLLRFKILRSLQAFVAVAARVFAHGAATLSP
T1 sequence (P29460 23-328, chain 2 of 2): as the sequence (P29460 23-328, chain 2 of 2) above

Binder	IC50 [1] [nM]	binding result [2]	IC50 [3] [nM]	Kd [4] [nM]
B1	> 5000			
B2	3000			
B3	3000			
B4		no binding	50	30.7
B5		no binding	150	44.6
B6	3000			
B7	3000			
B8		no binding	50	33
B9	450			
B10	5000			
B11	2000			
B12	> 5000			
B13	> 5000			
B14	> 5000			
B15		no binding	50	71
